According to paper PMC10757926, “Two birds with one stone: human SIRPα nanobodies for functional modulation and in vivo imaging of myeloid cells” (Frontiers in Immunology, 2023):

B1: hSIRPα Nb S45 (VHH)
VHH: HVQLVESGGGLVQPGGSLRLSCAARGFSFRDSAMSWARQAPGKGLEWVGAIYSDGSTVYEKSVKGRFTISRDNAKNTMYLQMHSLKPEDSARYYCAPKGVVADEGDYSGQGTLVTVSS
notes: selected against domain 1 of hSIRPα; source: E. coli XL-1, purified (IMAC, SEC); not shown: His tag (from the IMAC purification)
B2: hSIRPα Nb S7 (VHH)
VHH: HVQLVESGGGLVQVGDSLRLSCAPSGRTFRAYAMAWFRQAPGKEREFVAAIRWIGGTPSYKDSVKGRFTISRDNARNTFYLQMNSLEPQDTGVYYCAAEETQKGSGLGHDGRHYDYWGQGTPVTVSS
notes: selected against the entire extracellular portion of hSIRPα; source: E. coli XL-1, purified (IMAC, SEC); not shown: His tag (from the IMAC purification)
B3: hSIRPα Nb S8 (VHH)
VHH: QVQLVESGGGLVQPGGSLRLSCADSEFRLDEYATGWFRQAPGKEREGVACISRSGSNTKYTDSVKGRFTISRDNAKKTVYLQMNSLKPEDTAVYYCAADLTSHYLSCSSYTDYNSWGQGTQVTVSS
notes: as for B2
B4: hSIRPα Nb S12 (VHH)
VHH: QVQLVESGGGLVQPGGSLRLSCLVSGFSSSYYAIGWFRQAPGKEREGVSCITRSGDTTNYADSVKGRFTISRDDARNTVYLQMNSLKTEDTAVYSCALWAWAGSGRLRCTASEYGHWGQGTQVTVSS
notes: as for B2
B5: hSIRPα Nb S14 (VHH)
VHH: EVQLVESGGGLVQPGGSLRLSCAASGFTANSYRMTWVRQAPGKGLEWVADIGTGNEWKYYPDSVKGRFTISRDAAKNTVYLQMNSLKPEDTAVYYCAKNGAVWYGEDGLDYWGKGTLVTVSS
notes: as for B2
B6: hSIRPα Nb S17 (VHH)
VHH: QVQLVESGGGLVQPGGSLRLSCAASGFTLDSYVIGWFRQAPGKEREGVSCISQRIGSTDYADSVKGRFTISKDNAKNTAYLQMNALKPEDTAVYYCAAGRLYYSGTYCPQGGMSYWGKGSPVTVSS
notes: as for B2
B7: hSIRPα Nb S21 (VHH)
VHH: DVQLVESGGGLVQPGGSLTLSCAASGFTSGTYALAYFRQAPGKEREGVSCISNDGGSRNYADSVKGRFTISRDNAKNTMYLQMNSLKPEDTAVYYCAAGPWYYCSDFARRPDGMDYWGKGTPVTVSS
notes: as for B2
B8: hSIRPα Nb S29 (VHH)
VHH: EVQLVESGGGLVQPGGSLRLSCAASGFTSETYAIGWFRQAPGKEREGVSCISNDGGSRNYADSVKGRFTISRDNAKNTSYLQMNSLKPEDTAVYYCAAGKYYYCLGYVSDGMDYWGKGTPVTVSS
notes: as for B2
B9: hSIRPα Nb S33 (VHH)
VHH: EVQLVESGGGLVQPGGSLRLSCTTSGFTLDYYSVGWFRQAPGKEREGVSCITASGSSTNYANSVKGRFTISRDKVKNTVYLQMSSLKPEDTAVYYCAAEPCTVVAGILQAPTSDFGSWGQGTQVTVSS
notes: as for B2
B10: hSIRPα Nb S41 (VHH)
VHH: HVQLVESGGGLVQPGGSLRLSCAASGETLDYYAIGYVRQAPGKEREGVSCISSRGDNTNYADSVKGRFTISRDNANNTVYLQMNSLKPEDTAVYYCVAIKDSWQNYYCSVGWVEYDVWGQGTQVTVSS
notes: as for B1
B11: hSIRPα Nb S42 (VHH)
VHH: HVQLVESGGGLVQPGGSLRLSCAASGFIFSGYAMSWVRQAPGKGLEWVSDISSDGVRLYYADSVKGRFTISRDNAKNTVYLEMTSLKPDDTALYYCATSSDPQLGLDLWGKGTPVTVSS
notes: as for B1
B12: hSIRPα Nb S43 (VHH)
VHH: HVQLVESGGGLVQPGGSARLSCAASGFDLDYFAIGWFRQAPGKEREGVSCISTRSETTNYVDSVKGRFTISRDNAISTVYLQMNNLKPEDTAVYYCAADWADWTMTGCQMTWDDYNYWGQGAQVTVSS
notes: as for B1
B13: hSIRPα Nb S44 (VHH)
VHH: QVQLQESGGGLVQPGGSLRLACAASGFTFSSYDMSWVRQAPGKGLEWVSDIKSGGGRTYYADSVKGRFTISRDNAKNTVYLQMNSLKPEDTAVYYCGSLDNSGAYTGGGQGSQVTVSS
notes: as for B1
B14: hSIRPα-S36K>R Nb (VHH)
VHH: EVQLVESGGGLVQPGGSLRLSCAASGFTLDYYAIGWFRQVPGREREGVSCISSDGGGNTYYADSVRGRFTISRDNARNTVYLQMNSLRPEDSAVYSCAAGPTYYSGSYCRDPHSDYDYWGQGTQVTVSS
notes: as the VHH of m9 (S36); source: E. coli, purified

Legend:
[1] = target: T1, biotinylated recombinant hSIRPα (extracellular portion) (Homo sapiens, UniProt P78324, biotin (Sulfo-NHS-LC-LC-Biotin)); assay: BLI; epitope binning: two consecutive association steps with different Nbs on recombinant hSIRPα; details: both partners purified
T1 construct: signal-regulatory protein α (SIRPα), human, recombinant extracellular portion; also called biotinylated hSIRPα; signal-regulatory protein α; source: bought: Acrobiosystems
T1 sequence (P78324 31-373): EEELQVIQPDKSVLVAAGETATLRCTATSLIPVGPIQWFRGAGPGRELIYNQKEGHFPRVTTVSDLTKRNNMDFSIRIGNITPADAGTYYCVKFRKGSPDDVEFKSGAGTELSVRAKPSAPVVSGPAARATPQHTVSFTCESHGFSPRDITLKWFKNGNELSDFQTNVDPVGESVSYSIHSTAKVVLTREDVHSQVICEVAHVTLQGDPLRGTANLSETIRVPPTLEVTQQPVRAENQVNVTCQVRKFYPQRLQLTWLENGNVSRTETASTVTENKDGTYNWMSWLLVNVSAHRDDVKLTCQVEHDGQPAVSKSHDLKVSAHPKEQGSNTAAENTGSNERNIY

[2] = target: T2, full-length hSIRPα on U2OS cells (Homo sapiens, UniProt P78324); assay: immunostaining of cells or tissue; live-cell immunofluorescence on U2OS cells expressing the target; unlabeled Nbs (1 nM to 100 nM) with Cy5-labeled anti-VHH, 1 h at 37°C; details: one partner purified
T2 construct: signal-regulatory protein α (SIRPα), human, full-length, co-expressed with IRES-derived GFP; also called U2OS-hSIRPα; source: U2OS, stably expressing, on live cells
T2 sequence (P78324 31-504): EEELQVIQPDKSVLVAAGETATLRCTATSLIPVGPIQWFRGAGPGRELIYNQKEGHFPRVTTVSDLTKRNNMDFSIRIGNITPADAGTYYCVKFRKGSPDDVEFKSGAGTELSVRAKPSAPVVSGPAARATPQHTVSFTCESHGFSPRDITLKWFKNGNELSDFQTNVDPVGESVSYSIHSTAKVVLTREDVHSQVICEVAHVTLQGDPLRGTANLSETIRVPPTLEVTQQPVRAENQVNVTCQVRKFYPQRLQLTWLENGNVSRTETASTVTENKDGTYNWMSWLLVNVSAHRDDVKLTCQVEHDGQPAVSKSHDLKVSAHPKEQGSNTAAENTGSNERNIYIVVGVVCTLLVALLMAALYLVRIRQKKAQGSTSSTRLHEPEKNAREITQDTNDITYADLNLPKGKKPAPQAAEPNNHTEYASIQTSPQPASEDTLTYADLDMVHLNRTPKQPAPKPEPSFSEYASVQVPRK

[3] = target: T3, hSIRPα domain 1 displayed on U2OS cells (Homo sapiens, UniProt P78324); assay: as above; details: one partner purified
T3 construct: signal-regulatory protein α (SIRPα), human, domain 1; also called hSIRPαD1; D1; source: U2OS, transiently expressing, on live cells
T3 sequence (P78324 whole entry, looked up, tested part not stated): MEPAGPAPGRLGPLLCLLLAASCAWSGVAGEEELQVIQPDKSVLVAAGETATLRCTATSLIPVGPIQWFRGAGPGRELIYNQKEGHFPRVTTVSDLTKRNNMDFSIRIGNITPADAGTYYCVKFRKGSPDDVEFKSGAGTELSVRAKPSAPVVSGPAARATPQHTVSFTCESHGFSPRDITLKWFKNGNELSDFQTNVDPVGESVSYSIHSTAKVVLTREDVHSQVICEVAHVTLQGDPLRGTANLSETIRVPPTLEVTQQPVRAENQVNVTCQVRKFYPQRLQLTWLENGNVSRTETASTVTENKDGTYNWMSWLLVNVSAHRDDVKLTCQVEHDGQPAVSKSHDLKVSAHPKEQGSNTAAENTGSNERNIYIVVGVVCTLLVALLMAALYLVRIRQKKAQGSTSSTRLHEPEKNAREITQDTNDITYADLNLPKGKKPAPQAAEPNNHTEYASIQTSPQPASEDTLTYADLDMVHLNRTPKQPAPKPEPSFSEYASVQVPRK

[4] = target: T4, hSIRPα domain 3 displayed on U2OS cells (Homo sapiens, UniProt P78324); assay: as above; details: one partner purified
T4 construct: signal-regulatory protein α (SIRPα), human, domain 3; also called hSIRPαD3; D3; source: U2OS, transiently expressing, on live cells
T4 sequence (P78324 whole entry, looked up, tested part not stated): as above

[5] = target: T5, hSIRPα-V1 displayed on U2OS cells (Homo sapiens, allele V1, UniProt P78324); assay: as above; details: one partner purified
T5 construct: signal-regulatory protein α (SIRPα), human, allelic variant V1; also called hSIRPα variant V1; source: U2OS, transiently expressing, on live cells
T5 sequence (P78324 31-504): as the sequence (P78324 31-504) above

[6] = target: T6, hSIRPβ1 displayed on U2OS cells (Homo sapiens, UniProt O00241); assay: as above; details: one partner purified
T6 construct: signal-regulatory protein β1 (SIRPβ1), human; source: U2OS, transiently expressing, on live cells
T6 sequence (O00241 30-398): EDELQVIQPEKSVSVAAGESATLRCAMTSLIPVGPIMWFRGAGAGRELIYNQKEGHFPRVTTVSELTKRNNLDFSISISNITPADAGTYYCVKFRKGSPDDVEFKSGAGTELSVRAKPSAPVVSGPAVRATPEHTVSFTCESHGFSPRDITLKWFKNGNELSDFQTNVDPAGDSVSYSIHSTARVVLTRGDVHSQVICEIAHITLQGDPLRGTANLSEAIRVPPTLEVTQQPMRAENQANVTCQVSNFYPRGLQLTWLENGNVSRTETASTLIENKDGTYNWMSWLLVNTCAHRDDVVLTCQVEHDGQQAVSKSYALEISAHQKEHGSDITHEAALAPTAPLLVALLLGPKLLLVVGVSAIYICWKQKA

[7] = target: T7, hSIRPγ displayed on U2OS cells (Homo sapiens, UniProt Q9P1W8); assay: as above; details: one partner purified
T7 construct: signal-regulatory protein γ (SIRPγ), human; also called hSIRPy; source: U2OS, transiently expressing, on live cells
T7 sequence (Q9P1W8 29-387): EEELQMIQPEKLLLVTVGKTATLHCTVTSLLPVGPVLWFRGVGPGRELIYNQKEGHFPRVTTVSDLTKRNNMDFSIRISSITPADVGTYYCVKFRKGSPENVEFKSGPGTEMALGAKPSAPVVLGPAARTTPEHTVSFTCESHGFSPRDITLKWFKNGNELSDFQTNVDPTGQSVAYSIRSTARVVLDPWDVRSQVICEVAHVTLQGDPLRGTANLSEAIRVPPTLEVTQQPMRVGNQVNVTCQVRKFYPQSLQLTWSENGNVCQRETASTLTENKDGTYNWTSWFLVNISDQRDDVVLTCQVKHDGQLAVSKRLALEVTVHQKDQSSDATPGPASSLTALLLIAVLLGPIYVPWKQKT

[8] = target: T8, murine SIRPα displayed on U2OS cells (Mus musculus, UniProt P97797); assay: as above; details: one partner purified
T8 construct: signal-regulatory protein α (SIRPα), mouse; also called mouse SIRPα; source: U2OS, transiently expressing, on live cells
T8 sequence (P97797 32-513): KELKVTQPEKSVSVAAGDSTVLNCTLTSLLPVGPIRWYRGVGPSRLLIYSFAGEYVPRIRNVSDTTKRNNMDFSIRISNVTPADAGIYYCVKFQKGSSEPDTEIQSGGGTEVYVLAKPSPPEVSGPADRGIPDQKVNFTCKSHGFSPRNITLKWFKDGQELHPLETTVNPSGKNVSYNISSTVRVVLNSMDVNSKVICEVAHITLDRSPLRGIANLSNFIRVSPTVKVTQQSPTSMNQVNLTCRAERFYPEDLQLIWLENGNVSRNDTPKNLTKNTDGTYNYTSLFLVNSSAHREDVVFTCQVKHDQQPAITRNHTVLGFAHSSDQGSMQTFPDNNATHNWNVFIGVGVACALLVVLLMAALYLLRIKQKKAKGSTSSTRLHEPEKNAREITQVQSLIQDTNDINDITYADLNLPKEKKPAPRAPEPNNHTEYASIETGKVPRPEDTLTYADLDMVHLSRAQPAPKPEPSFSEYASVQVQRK

recombinant hSIRPα = target: T9, recombinant hSIRPα (human, UniProt P78324); assay: HDX-MS; hSIRPα with Nb S8, S33 or S36; methods not in the text shown; details: both partners purified
T9 construct: signal-regulatory protein α (SIRPα), human, recombinant extracellular portion; source: bought: Acrobiosystems
T9 sequence (P78324 31-373): as the sequence (P78324 31-373) above

[9] = target: T10, hSIRPα domain 2 displayed on U2OS cells (Homo sapiens, UniProt P78324); assay: immunostaining of cells or tissue; live-cell immunofluorescence on U2OS cells expressing the target; unlabeled Nbs (1 nM to 100 nM) with Cy5-labeled anti-VHH, 1 h at 37°C; details: one partner purified
T10 construct: signal-regulatory protein α (SIRPα), human, domain 2; also called hSIRPαD2; D2; source: U2OS, transiently expressing, on live cells
T10 sequence (P78324 whole entry, looked up, tested part not stated): as the sequence (P78324 whole entry, looked up, tested part not stated) above

[10] = target: T1, biotinylated recombinant hSIRPα …; assay: BLI; Octet RED96e; biotinylated hSIRPα (5 µg/mL) immobilised on streptavidin biosensors; Nbs 0.625 nM to 320 nM in Octet buffer (PBS, 0.1% BSA, 0.02% Tween-20); association 240 s, dissociation 720 s; 1:1 model, global fit; details: both partners purified

Row | Binder | binding result [1] | binding result [2] | binding result [3] | binding result [4] | binding result [5] | binding result [6] | binding result [7] | binding result [8] | binding result (recombinant hSIRPα) | binding result [9] | binding result [10]
1 | B1 | binds | binds | binds | no binding (tested: Nbs 1 nM to 100 nM) | binds | binds | no binding (tested: Nbs 1 nM to 100 nM) | no binding (tested: Nbs 1 nM to 100 nM) | – | – | –
2 | B2 | – | binds | – | binds | binds | binds | – | no binding (tested: Nbs 1 nM to 100 nM) | – | – | –
3 | B3 | binds | binds | – | no binding (tested: Nbs 1 nM to 100 nM) | binds | binds | binds | no binding (tested: Nbs 1 nM to 100 nM) | binds | binds | –
4 | B4 | binds | binds | binds | no binding (tested: Nbs 1 nM to 100 nM) | – | binds | binds | no binding (tested: Nbs 1 nM to 100 nM) | – | – | –
5 | B5 | – | binds | binds | no binding (tested: Nbs 1 nM to 100 nM) | – | – | – | – | – | binds | –
6 | B6 | – | binds | binds | no binding (tested: Nbs 1 nM to 100 nM) | – | – | – | – | – | binds | –
7 | B7 | – | binds | – | no binding (tested: Nbs 1 nM to 100 nM) | – | – | – | – | – | binds | –
8 | B8 | – | binds | – | no binding (tested: Nbs 1 nM to 100 nM) | – | – | – | – | – | binds | –
9 | B9 | binds | binds | – | no binding (tested: Nbs 1 nM to 100 nM) | binds | binds | – | no binding (tested: Nbs 1 nM to 100 nM) | binds | binds | –
10 | B10 | binds | binds | binds | no binding (tested: Nbs 1 nM to 100 nM) | – | binds | – | no binding (tested: Nbs 1 nM to 100 nM) | – | – | –
11 | B11 | – | binds | binds | no binding (tested: Nbs 1 nM to 100 nM) | – | – | – | – | – | – | –
12 | B12 | – | binds | binds | no binding (tested: Nbs 1 nM to 100 nM) | – | – | – | – | – | – | –
13 | B13 | binds | binds | binds | no binding (tested: Nbs 1 nM to 100 nM) | – | binds | binds | no binding (tested: Nbs 1 nM to 100 nM) | – | – | –
14 | B14 | – | – | – | – | – | – | – | – | – | – | binds
